# T1: ULK3 fused to the VP16 activation domain, Q6PHR2
# T1 chain: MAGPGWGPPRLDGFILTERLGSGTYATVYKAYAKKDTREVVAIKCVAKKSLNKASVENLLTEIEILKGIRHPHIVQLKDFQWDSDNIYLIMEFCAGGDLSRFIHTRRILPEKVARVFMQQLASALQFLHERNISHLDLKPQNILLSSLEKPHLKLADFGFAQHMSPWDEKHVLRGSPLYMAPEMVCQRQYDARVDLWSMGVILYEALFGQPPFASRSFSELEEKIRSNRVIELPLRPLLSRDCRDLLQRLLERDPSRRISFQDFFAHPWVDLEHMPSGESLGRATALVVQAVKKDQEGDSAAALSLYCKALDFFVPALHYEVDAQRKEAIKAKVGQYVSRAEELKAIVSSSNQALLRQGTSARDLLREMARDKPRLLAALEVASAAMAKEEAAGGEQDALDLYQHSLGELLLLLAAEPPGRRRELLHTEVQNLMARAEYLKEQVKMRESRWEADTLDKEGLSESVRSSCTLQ
# B1: ULK3(MIT)2 (residues 277–449) (domain or fragment)
# chain: GPHMSGESLGRATALVVQAVKKDQEGDSAAALSLYCKALDFFVPALHYEVDAQRKEAIKAKVGQYVSRAEELKAIVSSSNQALLRQGTSARDLLREMARDKPRLLAALEVASAAMAKEEAAGGEQDALDLYQHSLGELLLLLAAEPPGRRRELLHTEVQNLMARAEYLKEQVKMRES
# B2: CHMP1B WT fused to the Gal4 DNA-binding domain, Q7LBR1 T178R; A181R; E184R (protein)
# chain: MSNMEKHLFNLKFAAKELSRSAKKCDKEEKAEKAKIKKAIQKGNMEVARIHAENAIRQKNQAVNFLRMSARVDAVAARVQTAVTMGKVTKSMAGVVKSMDATLKTMNLEKISALMDKFEHQFETLDVQTQQMEDTMSSTTTLTTPQNQVDMLLQEMADEAGLDLNMELPQGQTGSVGRSVRSARQDELSQRLARLRDQV
# Legend:
# [1] = target: other ESCRT-III proteins; test: fluorescence polarisation; data not shown; other ESCRT-III proteins
# [2] = target: T1, ULK3 fused to the VP16 activation …; test: yeast two-hybrid (β-galactosidase activity); settings: chain shown with the change;; parent: est. 0.66; read off a plot
Binder,Kd [1],response [2]
B1,100 µM,–
B2,–,0.5

# — PMC4475061
